Reference: publication PMC7966800, “Adiponectin-expressing Treg facilitate T lymphocyte development in thymic nurse cell complexes” (Communications Biology, 2021)
Values joined by “and” are separate entries in the source; they are usually repeats but may differ in a detail not shown here. Equal entries are not always repeated.

Target: the molecule itself
Test: non-reducing SDS-PAGE with Western blotting; thymus lysate of WT mice; non-reducing SDS-PAGE, polyclonal antibody to murine adiponectin

B1: Adiponectin (natural protein, mouse (endogenous in thymus), UniProt Q60994 18-247, looked up)
chain: EDDVTTTEELAPALVPPPKGTCAGWMAGIPGHPGHNGTPGRDGRDGTPGEKGEKGDAGLLGPKGETGDVGMTGAEGPRGFPGTPGRKGEPGEAAYVYRSAFSVGLETRVTVPNVPIRFTKIFYNQQNHYDGSTGKFYCNIPGLYYFSYHITVYMKDVKVSLFKKDKAVLFTYDQYQEKNVDQASGSVLLHLEVGDQVWLQVYGDGDHNGLYADNVNDSTFTGFLLYHDTN
notes: adiponectin, mouse, endogenous protein of thymus and thymic nurse cell (TNC) complexes; found as trimer, hexamer and HMW oligomers; Endogenous secreted glycoprotein; detected with a polyclonal antibody against murine adiponectin; also called Adn; ADIPOQ; source: endogenous, thymus tissue and TNC complexes of wild-type mice, in lysate
  stoichiometry N: 3 and 6
